{"source": "FireProtDB (doi:10.1006/jmbi.1995.0325)", "parents": {"B1": {"name": "Subtilisin inhibitor, P01006 (parent)", "chain": "MRNTGAGPSPSVSRPPPSAAPLSGAALAAPGDAPSALYAPSALVLTVGKGVSATTAAPERAVTLTCAPGPSGTHPAAGSACADLAAVGGDLNALTRGEDVMCPMVYDPVLLTVDGVWQGKRVSYERVFSNECEMNAHGSSVFAF"}}, "variants_of": "B1", "conditions": "Streptomyces albogriseolus, Thermal, DSC, reversible: yes, structure 3SSI, whole UniProt chain shown; for ddG of mutation (higher = less stable) / unfolding free energy: 53.36 °C", "data": [{"variant": "M104K", "values": [{"measurement": "Tm", "setting": "pH 3.2, glycine 25 mM", "value": 57.1, "unit": "°C"}, {"measurement": "change of melting temperature, mutant - wild type (higher = more stable)", "setting": "pH 3.2, glycine 25 mM", "value": 3.71, "unit": "°C"}, {"measurement": "unfolding enthalpy (calorimetric)", "setting": "pH 3.2, glycine 25 mM", "value": 446, "unit": "kJ/mol"}, {"measurement": "ddG of mutation (higher = less stable)", "setting": "pH 7, phosphate 25 mM", "value": -1.46, "unit": "kJ/mol"}, {"measurement": "unfolding free energy", "setting": "pH 7, phosphate 25 mM", "value": 26.7, "unit": "kJ/mol"}, {"measurement": "Tm", "setting": "pH 7, phosphate 25 mM", "value": 82.9, "unit": "°C"}, {"measurement": "change of melting temperature, mutant - wild type (higher = more stable)", "setting": "pH 7, phosphate 25 mM", "value": 0.65, "unit": "°C"}, {"measurement": "unfolding enthalpy (calorimetric)", "setting": "pH 7, phosphate 25 mM", "value": 804, "unit": "kJ/mol"}, {"measurement": "ddG of mutation (higher = less stable)", "setting": "pH 9.5, glycine 25 mM", "value": -0.209, "unit": "kJ/mol"}, {"measurement": "unfolding free energy", "setting": "pH 9.5, glycine 25 mM", "value": 25.5, "unit": "kJ/mol"}, {"measurement": "Tm", "setting": "pH 9.5, glycine 25 mM", "value": 80.9, "unit": "°C"}, {"measurement": "change of melting temperature, mutant - wild type (higher = more stable)", "setting": "pH 9.5, glycine 25 mM", "value": 0.17, "unit": "°C"}, {"measurement": "unfolding enthalpy (calorimetric)", "setting": "pH 9.5, glycine 25 mM", "value": 786, "unit": "kJ/mol"}]}, {"variant": "M104E", "values": [{"measurement": "ddG of mutation (higher = less stable)", "setting": "pH 3.2, glycine 25 mM", "value": -1.46, "unit": "kJ/mol"}, {"measurement": "unfolding free energy", "setting": "pH 3.2, glycine 25 mM", "value": 24.7, "unit": "kJ/mol"}, {"measurement": "Tm", "setting": "pH 3.2, glycine 25 mM", "value": 54.3, "unit": "°C"}, {"measurement": "change of melting temperature, mutant - wild type (higher = more stable)", "setting": "pH 3.2, glycine 25 mM", "value": 0.98, "unit": "°C"}, {"measurement": "unfolding enthalpy (calorimetric)", "setting": "pH 3.2, glycine 25 mM", "value": 432, "unit": "kJ/mol"}, {"measurement": "ddG of mutation (higher = less stable)", "setting": "pH 7, phosphate 25 mM", "value": -4.39, "unit": "kJ/mol"}, {"measurement": "unfolding free energy", "setting": "pH 7, phosphate 25 mM", "value": 29.6, "unit": "kJ/mol"}, {"measurement": "Tm", "setting": "pH 7, phosphate 25 mM", "value": 84.2, "unit": "°C"}, {"measurement": "change of melting temperature, mutant - wild type (higher = more stable)", "setting": "pH 7, phosphate 25 mM", "value": 1.99, "unit": "°C"}, {"measurement": "unfolding enthalpy (calorimetric)", "setting": "pH 7, phosphate 25 mM", "value": 772, "unit": "kJ/mol"}]}, {"variant": "M104D", "values": [{"measurement": "Tm", "setting": "pH 3.2, glycine 25 mM", "value": 56.8, "unit": "°C"}, {"measurement": "change of melting temperature, mutant - wild type (higher = more stable)", "setting": "pH 3.2, glycine 25 mM", "value": 3.46, "unit": "°C"}, {"measurement": "unfolding enthalpy (calorimetric)", "setting": "pH 3.2, glycine 25 mM", "value": 413, "unit": "kJ/mol"}, {"measurement": "ddG of mutation (higher = less stable)", "setting": "pH 7, phosphate 25 mM", "value": -6.69, "unit": "kJ/mol"}, {"measurement": "unfolding free energy", "setting": "pH 7, phosphate 25 mM", "value": 31.9, "unit": "kJ/mol"}, {"measurement": "Tm", "setting": "pH 7, phosphate 25 mM", "value": 85.3, "unit": "°C"}, {"measurement": "change of melting temperature, mutant - wild type (higher = more stable)", "setting": "pH 7, phosphate 25 mM", "value": 3.08, "unit": "°C"}, {"measurement": "unfolding enthalpy (calorimetric)", "setting": "pH 7, phosphate 25 mM", "value": 759, "unit": "kJ/mol"}, {"measurement": "ddG of mutation (higher = less stable)", "setting": "pH 9.5, glycine 25 mM", "value": -5.23, "unit": "kJ/mol"}, {"measurement": "unfolding free energy", "setting": "pH 9.5, glycine 25 mM", "value": 30.5, "unit": "kJ/mol"}, {"measurement": "Tm", "setting": "pH 9.5, glycine 25 mM", "value": 83.3, "unit": "°C"}, {"measurement": "change of melting temperature, mutant - wild type (higher = more stable)", "setting": "pH 9.5, glycine 25 mM", "value": 2.59, "unit": "°C"}, {"measurement": "unfolding enthalpy (calorimetric)", "setting": "pH 9.5, glycine 25 mM", "value": 741, "unit": "kJ/mol"}]}, {"variant": "M104V", "values": [{"measurement": "ddG of mutation (higher = less stable)", "setting": "pH 3.2, glycine 25 mM", "value": 1.92, "unit": "kJ/mol"}, {"measurement": "unfolding free energy", "setting": "pH 3.2, glycine 25 mM", "value": 21.3, "unit": "kJ/mol"}, {"measurement": "ddG of mutation (higher = less stable)", "setting": "pH 7, phosphate 25 mM", "value": 2.76, "unit": "kJ/mol"}, {"measurement": "unfolding free energy", "setting": "pH 7, phosphate 25 mM", "value": 22.5, "unit": "kJ/mol"}, {"measurement": "Tm", "setting": "pH 7, phosphate 25 mM", "value": 81, "unit": "°C"}, {"measurement": "change of melting temperature, mutant - wild type (higher = more stable)", "setting": "pH 7, phosphate 25 mM", "value": -1.17, "unit": "°C"}, {"measurement": "unfolding enthalpy (calorimetric)", "setting": "pH 7, phosphate 25 mM", "value": 808, "unit": "kJ/mol"}, {"measurement": "ddG of mutation (higher = less stable)", "setting": "pH 9.5, glycine 25 mM", "value": 3.97, "unit": "kJ/mol"}, {"measurement": "unfolding free energy", "setting": "pH 9.5, glycine 25 mM", "value": 21.3, "unit": "kJ/mol"}, {"measurement": "Tm", "setting": "pH 9.5, glycine 25 mM", "value": 79, "unit": "°C"}, {"measurement": "change of melting temperature, mutant - wild type (higher = more stable)", "setting": "pH 9.5, glycine 25 mM", "value": -1.75, "unit": "°C"}, {"measurement": "unfolding enthalpy (calorimetric)", "setting": "pH 9.5, glycine 25 mM", "value": 789, "unit": "kJ/mol"}]}, {"variant": "M104L", "values": [{"measurement": "ddG of mutation (higher = less stable)", "setting": "pH 3.2, glycine 25 mM", "value": 0.544, "unit": "kJ/mol"}, {"measurement": "unfolding free energy", "setting": "pH 3.2, glycine 25 mM", "value": 22.7, "unit": "kJ/mol"}, {"measurement": "Tm", "setting": "pH 3.2, glycine 25 mM", "value": 52.9, "unit": "°C"}, {"measurement": "change of melting temperature, mutant - wild type (higher = more stable)", "setting": "pH 3.2, glycine 25 mM", "value": -0.43, "unit": "°C"}, {"measurement": "unfolding enthalpy (calorimetric)", "setting": "pH 3.2, glycine 25 mM", "value": 451, "unit": "kJ/mol"}, {"measurement": "ddG of mutation (higher = less stable)", "setting": "pH 7, phosphate 25 mM", "value": 1.05, "unit": "kJ/mol"}, {"measurement": "unfolding free energy", "setting": "pH 7, phosphate 25 mM", "value": 24.2, "unit": "kJ/mol"}, {"measurement": "Tm", "setting": "pH 7, phosphate 25 mM", "value": 81.8, "unit": "°C"}, {"measurement": "change of melting temperature, mutant - wild type (higher = more stable)", "setting": "pH 7, phosphate 25 mM", "value": -0.46, "unit": "°C"}, {"measurement": "unfolding enthalpy (calorimetric)", "setting": "pH 7, phosphate 25 mM", "value": 807, "unit": "kJ/mol"}, {"measurement": "ddG of mutation (higher = less stable)", "setting": "pH 9.5, glycine 25 mM", "value": 2.3, "unit": "kJ/mol"}, {"measurement": "unfolding free energy", "setting": "pH 9.5, glycine 25 mM", "value": 23, "unit": "kJ/mol"}]}, {"variant": "M104I", "values": [{"measurement": "ddG of mutation (higher = less stable)", "setting": "pH 3.2, glycine 25 mM", "value": 3.05, "unit": "kJ/mol"}, {"measurement": "unfolding free energy", "setting": "pH 3.2, glycine 25 mM", "value": 20.2, "unit": "kJ/mol"}, {"measurement": "ddG of mutation (higher = less stable)", "setting": "pH 7, phosphate 25 mM", "value": 3.93, "unit": "kJ/mol"}, {"measurement": "unfolding free energy", "setting": "pH 7, phosphate 25 mM", "value": 21.3, "unit": "kJ/mol"}, {"measurement": "Tm", "setting": "pH 7, phosphate 25 mM", "value": 80.4, "unit": "°C"}, {"measurement": "change of melting temperature, mutant - wild type (higher = more stable)", "setting": "pH 7, phosphate 25 mM", "value": -1.78, "unit": "°C"}, {"measurement": "unfolding enthalpy (calorimetric)", "setting": "pH 7, phosphate 25 mM", "value": 808, "unit": "kJ/mol"}, {"measurement": "Tm", "setting": "pH 9.5, glycine 25 mM", "value": 78.3, "unit": "°C"}, {"measurement": "change of melting temperature, mutant - wild type (higher = more stable)", "setting": "pH 9.5, glycine 25 mM", "value": -2.42, "unit": "°C"}, {"measurement": "unfolding enthalpy (calorimetric)", "setting": "pH 9.5, glycine 25 mM", "value": 790, "unit": "kJ/mol"}]}, {"variant": "M104A", "values": [{"measurement": "ddG of mutation (higher = less stable)", "setting": "pH 3.2, glycine 25 mM", "value": -2.26, "unit": "kJ/mol"}, {"measurement": "unfolding free energy", "setting": "pH 3.2, glycine 25 mM", "value": 25.5, "unit": "kJ/mol"}, {"measurement": "Tm", "setting": "pH 3.2, glycine 25 mM", "value": 55, "unit": "°C"}, {"measurement": "change of melting temperature, mutant - wild type (higher = more stable)", "setting": "pH 3.2, glycine 25 mM", "value": 1.66, "unit": "°C"}, {"measurement": "unfolding enthalpy (calorimetric)", "setting": "pH 3.2, glycine 25 mM", "value": 421, "unit": "kJ/mol"}, {"measurement": "ddG of mutation (higher = less stable)", "setting": "pH 7, phosphate 25 mM", "value": -2.3, "unit": "kJ/mol"}, {"measurement": "unfolding free energy", "setting": "pH 7, phosphate 25 mM", "value": 27.5, "unit": "kJ/mol"}, {"measurement": "Tm", "setting": "pH 7, phosphate 25 mM", "value": 83.4, "unit": "°C"}, {"measurement": "change of melting temperature, mutant - wild type (higher = more stable)", "setting": "pH 7, phosphate 25 mM", "value": 1.16, "unit": "°C"}, {"measurement": "unfolding enthalpy (calorimetric)", "setting": "pH 7, phosphate 25 mM", "value": 766, "unit": "kJ/mol"}, {"measurement": "ddG of mutation (higher = less stable)", "setting": "pH 9.5, glycine 25 mM", "value": -0.544, "unit": "kJ/mol"}, {"measurement": "unfolding free energy", "setting": "pH 9.5, glycine 25 mM", "value": 25.8, "unit": "kJ/mol"}, {"measurement": "Tm", "setting": "pH 9.5, glycine 25 mM", "value": 80.9, "unit": "°C"}, {"measurement": "change of melting temperature, mutant - wild type (higher = more stable)", "setting": "pH 9.5, glycine 25 mM", "value": 0.18, "unit": "°C"}, {"measurement": "unfolding enthalpy (calorimetric)", "setting": "pH 9.5, glycine 25 mM", "value": 747, "unit": "kJ/mol"}]}, {"variant": "M104G", "values": [{"measurement": "Tm", "setting": "pH 3.2, glycine 25 mM", "value": 52.7, "unit": "°C"}, {"measurement": "change of melting temperature, mutant - wild type (higher = more stable)", "setting": "pH 3.2, glycine 25 mM", "value": -0.7, "unit": "°C"}, {"measurement": "unfolding enthalpy (calorimetric)", "setting": "pH 3.2, glycine 25 mM", "value": 445, "unit": "kJ/mol"}, {"measurement": "ddG of mutation (higher = less stable)", "setting": "pH 7, phosphate 25 mM", "value": 0.251, "unit": "kJ/mol"}, {"measurement": "unfolding free energy", "setting": "pH 7, phosphate 25 mM", "value": 25, "unit": "kJ/mol"}, {"measurement": "ddG of mutation (higher = less stable)", "setting": "pH 9.5, glycine 25 mM", "value": 2.05, "unit": "kJ/mol"}, {"measurement": "unfolding free energy", "setting": "pH 9.5, glycine 25 mM", "value": 23.2, "unit": "kJ/mol"}, {"measurement": "Tm", "setting": "pH 9.5, glycine 25 mM", "value": 79.8, "unit": "°C"}, {"measurement": "change of melting temperature, mutant - wild type (higher = more stable)", "setting": "pH 9.5, glycine 25 mM", "value": -0.87, "unit": "°C"}, {"measurement": "unfolding enthalpy (calorimetric)", "setting": "pH 9.5, glycine 25 mM", "value": 777, "unit": "kJ/mol"}]}]}
